Assay [1] addresses T1, soluble human CD3 epsilon chain (human, UniProt P07766 23-126).
T1 construct: also called CD3ε
Nature of the assay: SPR. (In general: SPR reads the build-up and loss of mass on a sensor chip optically.)

The next assay has as its target T2, human GPC3 (human, UniProt P51654 25-563).
T2 construct: range 25-563; soluble analyte; also called soluble human GPC3; glypican 3
The assay can be described thus: SPR.

Residue numbers refer to the chain shown, from its start. Names and notes keep the numbering of the source. Values joined by “and” are separate entries in the source; they are usually repeats but may differ in a detail not shown here. Identical values can stand only once.

For orientation: Kd means the equilibrium constant for the complex coming apart. Read a low Kd as higher affinity.

T1 sequence (P07766 23-126 limits assumed): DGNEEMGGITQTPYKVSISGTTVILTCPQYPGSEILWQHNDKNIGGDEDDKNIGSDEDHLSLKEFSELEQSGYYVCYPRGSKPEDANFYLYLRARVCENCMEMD
T2 sequence (P51654 25-563 limits assumed): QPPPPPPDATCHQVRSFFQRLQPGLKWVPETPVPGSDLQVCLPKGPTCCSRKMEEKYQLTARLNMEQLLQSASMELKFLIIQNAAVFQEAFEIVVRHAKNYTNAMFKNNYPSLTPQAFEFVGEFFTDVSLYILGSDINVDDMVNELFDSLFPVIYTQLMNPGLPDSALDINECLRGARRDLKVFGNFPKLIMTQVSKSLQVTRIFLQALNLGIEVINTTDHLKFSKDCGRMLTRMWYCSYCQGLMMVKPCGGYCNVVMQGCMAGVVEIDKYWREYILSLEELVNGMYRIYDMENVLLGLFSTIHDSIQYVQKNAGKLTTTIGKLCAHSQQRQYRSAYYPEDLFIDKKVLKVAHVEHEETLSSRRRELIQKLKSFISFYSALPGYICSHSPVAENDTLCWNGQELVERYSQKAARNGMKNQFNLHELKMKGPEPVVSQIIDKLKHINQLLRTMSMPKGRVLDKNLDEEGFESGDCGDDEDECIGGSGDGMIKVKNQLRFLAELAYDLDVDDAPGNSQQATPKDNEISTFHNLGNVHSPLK

B1: GPC3_ERY22_CE115 (rCE115H-E22Hh/rCE115L-k0/GL4-E22Hk/H0000-E22L) (bispecific antibody, human IgG1, kappa, L234A L235A, N297A)
heavy: EVQLVETGGSLVQPGKSLKLTCATSGFTFSNAWMHWVRQSPEKQLEWVAQIKAKSNNYATYYAESVKGRFTISRDDSKSNIYLQMNSLKEEDTAVYYCRYVHYGAYYGVDAWGQGTSVTVSSASTKGPSVFPLAPSSKSTSGGTAALGCLVKDYFPEPVTVSWNSGALTSGVHTFPAVLQSSGLYSLSSVVTVPSSSLGTQTYICNVNHKPSNTKVDKKVEPKSCDKTHTCPPCPAPEAAGGPSVFLFPPKPKDTLMISRTPEVTCVVVDVSHEDPEVKFNWYVDGVEVHNAKTKPREEQYASTYRVVSVLTVLHQDWLNGKEYKCKVSNKALPAPIEKTISKAKGQPREPQVYTLPPSRCELTKNQVSLSCAVKGFYPSDIAVEWESNGQPENNYKTTPPVLDSDGSFFLVSKLTVDKSRWQQGNVFSCSVMHEALHNHYTQKSLSLSPDYKDDDDK
light: DVVMTQTPVSMSVSLGGQVSISCRSSQSLVHNNGNTYVSWYIQKPSQSPQLLIYKVSNRFSGISDRFSGSGSGTDFTLKISRVEPDDLGVYYCGQGTQDPYTFGAGTKLELKRTVAAPSVFIFPPSDEQLKSGTASVVCLLNNFYPREAKVQWKVDNALQSGNSQESVTEQDSKDSTYSLSSTLTLSKADYEKHKVYACEVTHQGLSSPVTKSFNRGEC
chain 1: DIVMTQSPLSLPVTPGEPASISCRSSQSLVHSNRNTYLHWYQQKPGQAPRLLIYKVSNRFSGVPDRFSGSGSGTDFTLKISRVEAEDVGVYYCSQNTHVPPTFGQGTKLEIKSSASTKGPSVFPLAPSSKSTSGGTAALGCLVKDYFPEPVTVSWNSGALTSGVHTFPAVLQSSGLYSLSSVVTVPSSSLGTQTYICNVNHKPSNTKVDKKVEPKSCDKTHTCPPCPAPEAAGGPSVFLFPPKPKDTLMISRTPEVTCVVVDVSHEDPEVKFNWYVDGVEVHNAKTKPREEQYASTYRVVSVLTVLHQDWLNGKEYKCKVSNKALPAPIEKTISKAKGQPREPQVCTLPPSRDELTKNQVSLWCLVKGFYPSDIAVEWESNGQPENNYKTTPPVLDSDGSFFLYSKLTVDKSRWQQGNVFSCSVMHEALHNHYTQKSLSLSPHHHHHHHH
chain 2: QVQLVQSGAEVKKPGASVKVSCKASGYTFTDYEMHWIRQPPGQGLEWIGAIDPKTGDTAYSQKFKGRVTLTADKSTSTAYMELSSLTSEDTAVYYCTRFYSYTYWGQGTLVTVSSASVAAPSVFIFPPSDEQLKSGTASVVCLLNNFYPREAKVQWKVDNALQSGNSQESVTEQDSKDSTYSLSSTLTLSKADYEKHKVYACEVTHQGLSSPVTKSFNRGEC
notes: ERY22 format
Regarding B1, the Kd in assay [1] turned out to be 93.7 nM.

B2: rCE115H-E22Hh/none-Hi-Kn010G3/L0000vk1-k0 (antibody, human IgG1, L234A L235A, N297A, V domains shown)
VH: EVQLVETGGSLVQPGKSLKLTCATSGFTFSNAWMHWVRQSPEKQLEWVAQIKAKSNNYATYYAESVKGRFTISRDDSKSNIYLQMNSLKEEDTAVYYCRYVHYGAYYGVDAWGQGTSVTVSS
VL: DIQMTQSPSSLSASVGDRVTITCRSSQSLVHSNRNTYLHWYQQKPGKAPKLLIYKVSNRFSGVPSRFSGSGSGTDFTFTISSLQPEDIATYYCGQGTQVPYTFGQGTKVEIK
notes: one-arm
In the case of B2, the Kd in assay [1] is 85.2 nM.

B3: rCE115H-E22Hh/none-Hi-Kn010G3/rCE115L-k0 (antibody, human IgG1, kappa, L234A L235A, N297A, V domains shown)
VH: B2 VH
VL: DVVMTQTPVSMSVSLGGQVSISCRSSQSLVHNNGNTYVSWYIQKPSQSPQLLIYKVSNRFSGISDRFSGSGSGTDFTLKISRVEPDDLGVYYCGQGTQDPYTFGAGTKLELKR
notes: one-arm; also called rCE115H-E22Hh//-Hi-Kn010G3/rCE115L-k0
B3: the Kd in assay [1] is 124 nM and 138 nM.

B4: TR01H079-E22Hh/none-Hi-Kn010G3/L0000-k0 (antibody, V domains shown)
VH: QVQLVESGGGLVQPGRSLRLSCAASGFTFSNAWMHWVRQAPGKGLEWVAQIKDKSNNYATYYAESVKGRFTISRADSKNSIYLQMNSLKTEDTAVYYCRYVHYAAAEMVRDSYGVDIWGQGTTVTVSS
VL: DIVMTQSPLSLPVTPGEPASISCRSSQSLVHSNRNTYLHWYQQKPGQAPRLLIYKVSNRFSGVPDRFSGSGSGTDFTLKISRVEAEDVGVYYCGQGTQVPYTFGQGTKLEIKR
notes: one-arm
Molecule B4 yielded a Kd in assay [1] of 50.5 nM.

B5: TR01H084-E2702GsKsc/none-Hi-E2704sE/L0011-k0 (antibody, human IgG4 S228P, kappa, N297A, V domains shown)
VH: QVQLVESGGGVVQPGGSLRLSCAASGFTFSNAWMHWVRQAPGKGLEWVAQIKDKSQNYATYYAESVKGRFTISRADSKNSIYLQMNSLKTEDTAVYYCRYVHYAAGYGVDIWGQGTTVTVSS
VL: B4 VL with S28P
notes: one-arm
On to B5, for which the Kd in assay [1] came to 4.14 nM.

B6: rCE115H-E22Hh/none-Hi-Kn010G3/L0000-k0 (antibody, human IgG1, kappa, L234A L235A, N297A, V domains shown)
VH: B2 VH
VL: B4 VL
notes: one-arm
Turning to B6, the Kd in assay [1] turned out to be 80 nM.

B7: TR01H113-E2702GsKsc/none-Hi-E2704sE/L0011-k0 (antibody, human IgG4 S228P, kappa, N297A, V domains shown)
VH: B5 VH with Y62V
VL: B4 VL with S28P
notes: one-arm
In assay [1], B7 came in with a Kd of 5.14 nM.

B8: TR01H109-E2702GsKsc/none-Hi-E2704sE/L0011-k0 (antibody, human IgG4 S228P, kappa, N297A, V domains shown)
VH: B5 VH with V11L, G16R, Y62V, A75D, I81L, I111A
VL: B4 VL with S28P
notes: one-arm
On to B8, for which, in assay [1], the Kd worked out at 16.4 nM.

B9: TR01H082-E2702GsKsc/none-Hi-E2704sE/L0011-k0 (antibody, human IgG4 S228P, kappa, N297A, V domains shown)
VH: B5 VH with V11L, G16R, A75D, I81L, I111A
VL: B4 VL with S28P
notes: one-arm
As to B9, the affinity in assay [1], expressed as Kd, was 10.1 nM.

B10: H0610-G1dh/none-Hi-Kn010G3/L0015-k0 (antibody, V domains shown)
VH: QVQLVQSGAEVKKPGASVKVSCKASGYTFTDYEMHWIRQPPGQGLEWIGAIDGKTPDTAYSQKFKGRVTLTADKSTSTAYMELSSLTSEDTAVYYCTRFYSYTYWGQGTLVTVSS
VL: DIVMTQSPLSLPVTPGEPASISCRSSQSPVHSNRNTYLHWYQQKPGQAPRLLIYKVSNRFSGVPDRFSGSGSGTDFTLKISRVEAEDVGVYYCGQGTQVPYTFGQGTKLEIK
notes: one-arm
Molecule B10 showed a Kd with human GPC3 of 1.31 nM.

B11: TR01H015-E22Hh/none-Hi-Kn010G3/TR01L003-k0 (antibody, human IgG1, L234A L235A, N297A)
heavy: QVQLVESGGGLVQPGRSLRLSCAASGFTFSNAWMHWVRQAPGKGLEWVAQIKGKSNNYATYYAESVKGRFTISRADSKNSIYLQMNSLKTEDTAVYYCRYVHYSASYGVDIWGQGTTVTVSSASTKGPSVFPLAPSSKSTSGGTAALGCLVKDYFPEPVTVSWNSGALTSGVHTFPAVLQSSGLYSLSSVVTVPSSSLGTQTYICNVNHKPSNTKVDKKVEPKSCDKTHTCPPCPAPEAAGGPSVFLFPPKPKDTLMISRTPEVTCVVVDVSHEDPEVKFNWYVDGVEVHNAKTKPREEQYASTYRVVSVLTVLHQDWLNGKEYKCKVSNKALPAPIEKTISKAKGQPREPQVYTLPPSRCELTKNQVSLSCAVKGFYPSDIAVEWESNGQPENNYKTTPPVLDSDGSFFLVSKLTVDKSRWQQGNVFSCSVMHEALHNHYTQKSLSLSPDYKDDDDK
VL: B10 VL with P29L, L109V, K112E
notes: one-arm
In assay [1], B11 gave a Kd of 63.4 nM.

B12: TR01H082-E22Hh/none-Hi-Kn010G3/TR01L020-k0 (antibody, V domains shown)
VH: B5 VH with V11L, G16R, A75D, I81L, I111A
VL: B10 VL with R24Q, S25A, Q27E, L38I, H39Q, Q42L, A48S, R50Q, G94Y
notes: one-arm
In assay [1], B12 had a Kd of 106 nM.

B13: TR01H040-E22Hh/none-Hi-Kn010G3/TR01L007-k0 (antibody, V domains shown)
VH: B5 VH with V11L, G16R, A104S, G106S, I111A
VL: B10 VL with R24Q, S25A, Q27E, P29L, Q42L, A48S, R50Q
notes: one-arm
B13 had a Kd in assay [1] of 68.2 nM.

B14: TR01H040-E22Hh/none-Hi-Kn010G3/TR01L019-k0 (antibody, V domains shown)
VH: B5 VH with V11L, G16R, A104S, G106S, I111A
VL: B10 VL with R24Q, S25A, Q27E, Q42L, A48S, R50Q, G94Y
notes: one-arm
Consider B14, for which, in assay [1], binding was put at a Kd of 3.2 nM.

B15: TR01H067-E22Hh/none-Hi-Kn010G3/TR01L019-k0 (antibody, V domains shown)
VH: B5 VH with V11L, G16R, A75D, I81L, G106S, I111A
VL: B10 VL with R24Q, S25A, Q27E, Q42L, A48S, R50Q, G94Y
notes: one-arm
In assay [1], B15 yielded a Kd of 12.1 nM.

B16: TR01H077-E22Hh/none-Hi-Kn010G3/L0200-k0 (antibody, V domains shown)
VH: QVQLVESGGGLVQPGRSLRLSCAASGFTFSNAWMHWVRQAPGKGLEWVAQIKDKSNNYATYYAESVKGRFTISRADSKNSIYLQMNSLKTEDTAVYYCRYVHYAAAEMVRDDIWGQGTTVTVSS
VL: B10 VL with S25P
notes: one-arm
B16 gave a Kd in assay [1] of 6.12 nM.

B17: TR01H015-E22Hh/none-Hi-Kn010G3/TR01L002-k0 (antibody, human IgG1, L234A L235A, N297A)
heavy: B11 heavy
VL: B10 VL with P29L, Q42L, A48S, R50Q
notes: one-arm
In the case of B17, in assay [1], the Kd amounted to 71.4 nM.

B18: GCH054-G1dh/none-Hi-Kn010G3/L0200-k0 (antibody, V domains shown)
VH: B10 VH with K19T, Q43E, K54E, Q62E
VL: B10 VL with S25P
notes: one-arm
Take B18: the dissociation constant (Kd) with human GPC3 was found to be 1.18 nM.

B19: TR01H015-E22Hh/none-Hi-Kn010G3/TR01L006-k0 (antibody, human IgG1, L234A L235A, N297A, V domains shown)
VH: B5 VH with V11L, G16R, D53G, Q56N, A104S, G106S
VL: B10 VL with R24Q, S25A, Q27E, P29L, Q42L, A48S, R50Q, L109V, K112E
notes: one-arm
The molecule B19 had a Kd in assay [1] of 93 nM.

B20: TR01H015-E22Hh/none-Hi-Kn010G3/TR01L004-k0 (antibody, human IgG1, L234A L235A, N297A)
heavy: B11 heavy
VL: B10 VL with R24Q, S25A, Q27E, P29L, L109V, K112E
notes: one-arm
In assay [1], B20 displayed a Kd of 73.4 nM.

B21: TR01H015-E22Hh/none-Hi-Kn010G3/TR01L001-k0 (antibody, human IgG1, L234A L235A, N297A)
heavy: B11 heavy
VL: B10 VL with R24Q, S25A, Q27E, P29L
notes: one-arm
Consider B21, for which binding in assay [1] was characterised by a dissociation constant (Kd) of 65.6 nM.

B22: TR01H015-E22Hh/none-Hi-Kn010G3/TR01L005-k0 (antibody, human IgG1, L234A L235A, N297A)
heavy: B11 heavy
VL: B10 VL with P29L, Q42L, A48S, R50Q, L109V, K112E
notes: one-arm
On to B22, for which, in assay [1], binding was characterised by a dissociation constant (Kd) of 65.3 nM.

The record behind these values is US20250066503A1, “CELL INJURY INDUCING THERAPEUTIC DRUG FOR USE IN CANCER THERAPY” (CHUGAI SEIYAKU KABUSHIKI KAISHA, priority 2016, published 2025).
